Results on four molecules are retold here after US20170081411A1 (published 2017).

Test [1] addresses T1, His-Avidin-FKBP (wild-type FKBP) (biotinylated (position not given)).
T1 construct: His tag and biotin acceptor tag are part of the entry; also called biotinylated wild-type FKBP; biotinylated FKBP
Put plainly: AlphaLISA direct format: 30 nM biotinylated FKBP + 30 nM FLAG-FRB, everolimus titrated 1:3 from 600 nM (EC50 is of the everolimus titration). The procedure:
(§1) FRB mutations were also ranked in an alternative assay format. […] All dilutions were made in 1× AlphaLISA Immunoassay buffer (PerkinElmer). Anti-Flag acceptor beads (PerkinElmer) were added at 10 ug/ml final concentration and incubated for one hour at room temperature. Streptavidin donor beads (PerkinElmer), were then added at a final concentration of 40 ug/ml and the plate was protected from light and incubated for 30 minutes at room temperature. The plate was then read on the PerkinElmer EnVision Multiplate reader equipped with the Alpha Module using excitation of 680 nm and a 570 nm Emission filter.

The target in test [2] is T1, His-Avidin-FKBP (wild-type FKBP). Nature of the test: AlphaLISA direct format, everolimus titrated, EC50 against wild type FRB. On the procedure: as §1

Positions count from the first letter of the chain named. Names may count otherwise.

T1 sequence (chain, as listed by the source limits assumed): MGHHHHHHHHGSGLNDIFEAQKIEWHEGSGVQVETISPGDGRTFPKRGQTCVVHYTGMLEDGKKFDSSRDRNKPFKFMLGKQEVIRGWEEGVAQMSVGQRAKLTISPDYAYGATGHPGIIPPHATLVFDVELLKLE

B1: His-FLAG-FRB (wild-type FRB) (other)
chain: MGHHHHHHHHGSDYKDDDDKGSASRILWHEMWHEGLEEASRLYFGERNVKGMFEVLEPLHAMMERGPQTLKETSFNQAYGRDLMEAQEWCRKYMKSGNVKDLTQAWDLYYHVFRRISKTS
notes: His and FLAG tags are part of the entry; also called wild type Flag-FRB
As usually defined, the EC50 is the concentration giving half of the maximal effect. For the molecule B1, the EC50 in test [1] stood at 3.9 nM.

B2: His-FLAG-FRB E2032I (other)
chain: B1 chain with E37I
notes: The entry already carries the mutation and the tags; also called E2032I (FLAG tagged)
Consider B2, for which the concentration giving a half-maximal response (EC50) in test [1] was determined as 2.46 nM.

B3: His-FLAG-FRB T2098L (other)
chain: B1 chain with T103L
notes: The entry already carries the mutation and the tags; also called T2098L (FLAG tagged)
For the molecule B3, the “fold improved against wild type FRB” value in test [2] turned out to be 3 fold. Also, the EC50 in test [1] came to 1.44 nM.

B4: His-FLAG-FRB E2032L (other)
chain: B1 chain with E37L
notes: The entry already carries the mutation and the tags; also called E2032L (FLAG tagged)
Take B4: the EC50 in test [1] came out at 2.15 nM.
